Data from paper PMC8560819, “Dynamic interactions and Ca^2+-binding modulate the holdase-type chaperone activity of S100B preventing tau aggregation and seeding” (Nature Communications, 2021).

B1: S100B (natural protein)
chain: MSELEKAMVALIDVFHQYSGREGDKHKLKKSELKELINNELSHFLEEIKEQEVVDKVMETLDNDGDGECDFQEFMAFVAMVTTACHEFFEHE
notes: the crystal structure PDB 2H61 and the assignment BMRB 27199 were used for it; Used unlabelled or uniformly 15N-labelled (M9 medium with 15N-ammonium chloride); also called S100B-Ca^2+; apo S100B
B2: R0 peptide (peptide)
peptide: Ac-REPKKVAVVRTP-NH2
notes: 12-residue tau peptide from the proline-rich region, holds Thr231; also called RO; source: synthetic peptide, bought: Genecust (France)
B3: R3 peptide (peptide)
peptide: Ac-PGGGSVQIVYKP-NH2
notes: 12-residue tau peptide within K18 that holds PHF6 (306-VQIVYK-311); source: synthetic peptide, bought: Genecust (France)
B4: R2 peptide (peptide)
peptide: Ac-PGGGKVQIINKK-NH2
notes: 12-residue tau peptide within K18 that holds PHF6* (275-VQIINK-280); source: synthetic peptide, bought: Genecust (France)

Legend:
[1] = target: the molecule itself; assay: SEC-SAXS; Superdex 200 (3.2/300), 50 mM Tris-HCl, 100 mM NaCl, 2% glycerol, 2 mM CaCl2, pH 7.9; S100B alone, S100B mixed with equimolar K18, or K18 alone, 12–13 mg/ml
S100B = target: B1; assay: NMR titration; 100 µM 15N-S100B titrated with 50 to 750 µM tau peptide; 50 mM Hepes pH 6.8, 1.25 mM CaCl2, 298 K; Kd from chemical shift perturbation of 11 resonances; conditions: both partners purified

| Binder | stoichiometry N [1] | Kd (S100B) [µM] |
| --- | --- | --- |
| B1 | 2 |  |
| B2 |  | 519 |
| B3 |  | 266 |
| B4 |  | 163 |
